From US12281340B2, “Method of producing N-acyl-amino group-containing compound” (AJINOMOTO CO., INC., priority 2018, dated 2025)

How the values were obtained:
Type in all cases: biochemical
Design in all cases: key: +: Detected; −: Not detected
[1] = Synthesis of N-caprinoylamino acid using purified acylamino acid synthetase, UPLC-MS detection; details: +ATP
In short: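 Purified enzyme (50 μg) with 5 mM amino acid, 5 mM sodium caprate, 10 mM ATP, 10 mM MgCl2, 1 mM DTT in Tris-HCl pH 8.0, 24 h at 25° C; product detected by UPLC-MS (ESI-negative) as the N-caprinoyl amino acid mass signal.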

[2] = Synthesis of N-caprinoyl-amino acid derivative, N-caprinoyl-D-amino acid and N-caprinoyl-peptide using purified acylamino acid synthetase, UPLC-MS detection; details: +ATP
In short: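 Purified enzyme (50 μg/mL) was incubated with 5 mM sodium caprate, 5 mM amino acid derivative, D-amino acid or peptide, 10 mM ATP, 10 mM MgCl2 and 1 mM DTT in 50 mM Tris-HCl, pH 8.0, for 24 h at 25 °C. After acidic methanol stop, UPLC-MS looked for the mass of the N-caprinoyl product.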

[3] = Synthesis of N-acylamino acids from various fatty acids using purified acylamino acid synthetase, UPLC-MS detection
Protocol: 0.1 mL of a reaction solution containing 50 mM Tris-HCl, 5 mM amino acid, 5 mM sodium fatty acid (3 mM of sodium palmitate or sodium stearate), 10 mM ATP, 10 mM MgCl2, 1 mM DTT, 200 μg/mL of the purified enzyme, pH 8.0 was shaken at 25° C. for 24 hours. When sodium palmitate or sodium stearate was used, methanol at a final concentration of 10% (v/v) was contained in the reaction solution. As the amino acid, L-Asp was used in AtGH3-6, OsGH3-8, AtGH3-5, AtGH3-12, L-Ile was used in AtJAR1, L-Ala was used in AtGH3-10, SsGH3, L-Glu was used in AtGH3-17, Gly was used in CfHP, L-Lys was used in PsIAAL, and L-Cys was used in PaHP. After completion of the reaction, 0.4 mL of the reaction stop solution (1% (v/v) phosphoric acid, 75% (v/v) methanol) was added, and the mixture was filtrated through the filter followed by being subjected to the UPLC-MS analysis to detect a signal of a molecular weight corresponding to the N-acylamino acid.
The condition for the UPLC-MS analysis is as follows.
Apparatus: ACQUITY UPLC (Waters)
Column: ACQUITY UPLC BEH C18 1.7 μm 2.1×100 mm Column (Waters), mobile phase A: 0.1% formic acid; mobile phase B: acetonitrile
• Flow rate: 0.6 mL/minute • Injection amount: 2 μL • Column temperature: 40° C. • Ionization method: ESI-negative
As a result of the UPLC-MS analysis, the signal of the molecular weight corresponding to the appropriate N-acylamino acid was confirmed in the reaction solution containing the enzyme in combination with sodium fatty acid shown in Table 7 below.

B1: AtGH3-17: indole-3-acetic acid-amido synthetase GH3.17 from Arabidopsis thaliana, His-tagged (protein, listed as Arabidopsis thaliana)
chain: MIPSYDPNDTEAGLKLLEDLTTNAEAIQQQVLHQILSQNSGTQYLRAFLDGEADKNQQSFKNKVPVVNYDDVKPFIQRIADGESSDIVSAQPITELLTSSGTSAGKPKLMPSTAEELERKTFFYSMLVPIMNKYVDGLDEGKGMYLLFIKPEIKTPSGLMARPVLTSYYKSQHFRNRPFNKYNVYTSPDQTILCQDSKQSMYCQLLCGLVQRSHVLRVGAVFASAFLRAVKFLEDHYKELCADIRTGTVTSWITDSSCRDSVLSILNGPNQELADEIESECAEKSWEGILRRIWPKAKYVEVIVTGSMAQYIPTLEFYSGGLPLVSTMYASSECYFGINLNPLCDPADVSYTLLPNMAYFEFLPVDDKSHEEIHFATHSNTDDDDDALKEDLIVNLVNVEVGQYYEIVITTFTGLYRYRVGDILKVTGFHNKAPQFRFVQRRNVVLSIDTDKTSEEDLLNAVTQAKLNHLQHPSSLLLTEYTSYADTSSIPGHYVLFWELKPRHSNDPPKLDDKTMEDCCSEVEDCLDYVYRRCRNRDKSIGPLEIRVVSLGTFDSLMDFCVSQGSSLNQYKTPRCVKSGGALEILDSRVIGRFFSKRVPQWEPLGLDS
modifications: His-tag
notes: indole-3-acetic acid-amido synthetase GH3.17 from Arabidopsis thaliana, His-tagged
+: signal of molecular weight corresponding to N-caprinoyl amino acid ([1]; substrates GABA and sodium caprate) | signal of molecular weight corresponding to N-caprinoyl amino acid ([1]; substrates Gly and sodium caprate) | signal of molecular weight corresponding to N-caprinoyl amino acid ([1]; substrates L-Ala and sodium caprate) | signal of molecular weight corresponding to N-caprinoyl amino acid ([1]; substrates L-Asn and sodium caprate) | signal of molecular weight corresponding to N-caprinoyl amino acid ([1]; substrates L-Asp and sodium caprate) | signal of molecular weight corresponding to N-caprinoyl amino acid ([1]; substrates L-Cys and sodium caprate) | signal of molecular weight corresponding to N-caprinoyl amino acid ([1]; substrates L-Gln and sodium caprate) | signal of molecular weight corresponding to N-caprinoyl amino acid ([1]; substrates L-Glu and sodium caprate) | signal of molecular weight corresponding to N-caprinoyl amino acid ([1]; substrates L-Ile and sodium caprate) | signal of molecular weight corresponding to N-caprinoyl amino acid ([1]; substrates L-Leu and sodium caprate) | signal of molecular weight corresponding to N-caprinoyl amino acid ([1]; substrates L-Met and sodium caprate) | signal of molecular weight corresponding to N-caprinoyl amino acid ([1]; substrates L-Phe and sodium caprate) | signal of molecular weight corresponding to N-caprinoyl amino acid ([1]; substrates L-Ser and sodium caprate) | signal of molecular weight corresponding to N-caprinoyl amino acid ([1]; substrates L-Thr and sodium caprate) | signal of molecular weight corresponding to N-caprinoyl amino acid ([1]; substrates L-Trp and sodium caprate) | signal of molecular weight corresponding to N-caprinoyl amino acid ([1]; substrates L-Tyr and sodium caprate) | signal of molecular weight corresponding to N-caprinoyl amino acid ([1]; substrates L-Val and sodium caprate) | signal of molecular weight corresponding to N-caprinoyl amino acid ([1]; substrates β-Ala and sodium caprate) | signal of molecular weight corresponding to N-caprinoyl compound ([2]; substrates D-Asp and sodium caprate) | signal of molecular weight corresponding to N-caprinoyl compound ([2]; substrates D-Glu and sodium caprate) | signal of molecular weight corresponding to N-caprinoyl compound ([2]; substrates D-Ile and sodium caprate) | signal of molecular weight corresponding to N-caprinoyl compound ([2]; substrates L-Gly-L-Gly and sodium caprate) | signal of molecular weight corresponding to N-caprinoyl compound ([2]; substrates Taurine and sodium caprate) | signal of molecular weight corresponding to N-acylamino acid ([3]; substrates L-Cys and Capric acid) | signal of molecular weight corresponding to N-acylamino acid ([3]; substrates L-Cys and Caproic acid) | signal of molecular weight corresponding to N-acylamino acid ([3]; substrates L-Cys and Caprylic acid) | signal of molecular weight corresponding to N-acylamino acid ([3]; substrates L-Cys and Lauric acid) | signal of molecular weight corresponding to N-acylamino acid ([3]; substrates L-Glu and Capric acid) | signal of molecular weight corresponding to N-acylamino acid ([3]; substrates L-Glu and Caproic acid) | signal of molecular weight corresponding to N-acylamino acid ([3]; substrates L-Glu and Caprylic acid) | signal of molecular weight corresponding to N-acylamino acid ([3]; substrates L-Glu and Lauric acid) | signal of molecular weight corresponding to N-acylamino acid ([3]; substrates L-Glu and Palmitic acid) | signal of molecular weight corresponding to N-acylamino acid ([3]; substrates L-Glu and myristic acid)
−: signal of molecular weight corresponding to N-caprinoyl amino acid ([1]; substrates L-Arg and sodium caprate) | signal of molecular weight corresponding to N-caprinoyl amino acid ([1]; substrates L-His and sodium caprate) | signal of molecular weight corresponding to N-caprinoyl amino acid ([1]; substrates L-Lys and sodium caprate) | signal of molecular weight corresponding to N-caprinoyl amino acid ([1]; substrates L-Pro and sodium caprate) | signal of molecular weight corresponding to N-caprinoyl compound ([2]; substrates Carnosine and sodium caprate) | signal of molecular weight corresponding to N-caprinoyl compound ([2]; substrates D-Ala and sodium caprate) | signal of molecular weight corresponding to N-caprinoyl compound ([2]; substrates D-Cys and sodium caprate) | signal of molecular weight corresponding to N-caprinoyl compound ([2]; substrates D-Lys and sodium caprate) | signal of molecular weight corresponding to N-caprinoyl compound ([2]; substrates L-Asp-L-Phe and sodium caprate) | signal of molecular weight corresponding to N-caprinoyl compound ([2]; substrates Sarcosine and sodium caprate) | signal of molecular weight corresponding to N-acylamino acid ([3]; substrates L-Cys and Linoleic acid) | signal of molecular weight corresponding to N-acylamino acid ([3]; substrates L-Cys and Palmitic acid) | signal of molecular weight corresponding to N-acylamino acid ([3]; substrates L-Cys and myristic acid) | signal of molecular weight corresponding to N-acylamino acid ([3]; substrates L-Glu and Linoleic acid)
